Experimental data published in publication PMC4433238.
Residue numbers refer to the chain shown, from its start.

What was measured:
Experiment in all cases: EMSA
BcAlkD (Bacillus cereus) = target: T1, BcAlkD (Bacillus cereus) (UniProt Q2PAD8); settings: EMSA: 100 pM 32P-DNA, 0-50 uM protein, 20 mM Tris-HCl pH 7.5, 100 mM NaCl, 5% glycerol, 2 mM DTT, 0.1 mM EDTA, 0.1 mg/mL BSA, 20 C, 30 min; 5% native gel
T1 sequence: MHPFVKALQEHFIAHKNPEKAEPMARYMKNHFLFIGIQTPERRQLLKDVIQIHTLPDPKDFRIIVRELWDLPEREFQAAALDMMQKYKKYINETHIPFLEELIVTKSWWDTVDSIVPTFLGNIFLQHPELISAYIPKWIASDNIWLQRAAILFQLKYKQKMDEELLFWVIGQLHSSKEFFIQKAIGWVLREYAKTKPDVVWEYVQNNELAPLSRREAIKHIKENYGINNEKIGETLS

[1] = target: T2, SmAlkD2 (Streptococcus mutans Clarke (ATCC 25175)) (UniProt A0A0M3KL00); settings: EMSA: 100 pM 32P-DNA, 0-50 uM protein, 20 mM Tris-HCl pH 7.5, 100 mM NaCl, 5% glycerol, 2 mM DTT, 0.1 mM EDTA, 0.1 mg/mL BSA, 20 C, 30 min, 5% native gel
T2 sequence: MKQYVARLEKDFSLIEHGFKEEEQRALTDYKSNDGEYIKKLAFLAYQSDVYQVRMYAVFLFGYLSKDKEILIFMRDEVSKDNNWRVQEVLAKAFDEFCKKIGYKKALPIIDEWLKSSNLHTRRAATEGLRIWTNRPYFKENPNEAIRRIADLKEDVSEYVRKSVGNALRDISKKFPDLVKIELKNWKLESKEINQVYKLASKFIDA

[2] = target: T3, BcAlkD-K29A K29A (Bacillus cereus) (UniProt Q2PAD8); settings: N13 of strand 1 = tetrahydrofuran (THF) abasic site mimetic; EMSA: 100 pM 32P-DNA, 0-50 uM protein, 20 mM Tris-HCl pH 7.5, 100 mM NaCl, 5% glycerol, 2 mM DTT, 0.1 mM EDTA, 0.1 mg/mL BSA, 20 C, 30 min; 5% native gel
T3 sequence: T1 sequence with K29A

GACCACTACACCGATTCCTTACAAC (double strand) [G•C-DNA 25-mer]
Kd (BcAlkD (Bacillus cereus)): 19 µM
Kd [1]: 67 µM

GACCACTACACCGATTCCTTACAAC / GTTGTAAGGAATTGGTGTAGTGGTC [G•T-DNA 25-mer]
Kd ([1]; G13•T13 mismatch): 52 µM

GACCACTACACCNATTCCTTACAAC / GTTGTAAGGAATCGGTGTAGTGGTC [THF•C-DNA 25-mer]
binding signal (fold lower affinity than WT) [2]: > 10000
Kd ([1]; N13 of strand 1 = tetrahydrofuran (THF) abasic site mimetic): 3.4 µM
